Assay results taken from the nanobody polyreactivity screen of Harvey et al. (2022).

Assay: yeast display, Sf9 membrane polyspecificity reagent, FACS + sequencing; frameworks hold sequencing errors
In short: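 Nanobodies came from a synthetic yeast display library in Saccharomyces cerevisiae BJ5465, induced with galactose for 36–48 hours and stained for 1 hour at 4 °C with 10% biotinylated, detergent-solubilized Sf9 membrane reagent. Cells were enriched on streptavidin microbeads and then FACS-sorted, with low and high (top ~1%) gates set on anti-HA fluorescence for expression and streptavidin fluorescence for reagent binding. Each polyreactivity label reflects the gate a clone came from. Genes were amplified by colony PCR, sequenced by MiSeq 2 × 250 and filtered by CDR length.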

Row | Sequence | polyreactivity (PSR sort gate)
1 | QVQLVESGGGLVQAGGSLRLSCAASGSTFYTNAMGWSRQAPGTERELVAAISGSGGSTYYADSVKGRFTISRDNAKNTVYVQMNSLKPEDTAVYYCAARSRYYYTRFDYWGQGTQVTVSS | low polyreactivity
2 | QVQLVESGGGLVQAGGSLRLSYAASGSTFHLYAMGWYRQAPGKERELVASINSGGSTYYADSVKGRFTISRDNAKNTVYLQMNSLKPEDTAVYYCAADAYSWWGRWERYPYTTMYYWGQGTQVTVSS | low polyreactivity
3 | QVQLEESGGGLVQAGGSLRLSCAASGGILVFYALGWYRQAPGTERELVAAINVSGRSTYYADSVKGRFTISRDNAKNTVYVQMNSLKPEDTAVYYCAADYYYVWYDYWGQGTQVTVSS | low polyreactivity
4 | QVQLVESGGGLVQAGGSLRLSCAASGRTFTYNVMGWYRQAPGKERELVAAITSGGTNYADSVKGRFTISRDNAKNTVYLQMNSLKPEDTAVYYCATDYYDDVTIGYDYWGQGTQVTVSS | low polyreactivity
5 | QVQLVESGGGLVQAGGSLRLSCAASGSILRDYAMGWYRQAPGKERELVAAITTSGAITYYADSVKGRFTISRDNAKNTVYLQMNSLKTEDTAVYYCNAKYVRWYGKYNYWGQGTQVTVSS | high polyreactivity
6 | QVQLQESGGGMVQAGGSLRLSCAASGSIFVSVTMGWYRQAPGKERELVASIGRGSTTNHADSVKGLFTISRDNAKNIVYLLMNSLKPEDTAVYYCAALESYAKYHGYWGQGTQVTVSS | low polyreactivity
7 | QVQLVESGGGLVQAGGSLRLSCAASGSTFRYYTMGWYRQAPGKERELVAAITWSGGSTYYADSVKGRFTISRDNAKNTVNLQMNSLKPEDTEVYYCNKEDVGSSESDYWGQGTQVTVSS | high polyreactivity
8 | QVQLVESGGGLVQAGGSLRLSCAASGRTFWIYAMGWYRQAPGKEREFVAAISSSGGGTYYADSVKGRFTISRDNAKNTVYLQMNSLKPEDTAVYYCAKDLYFSKGYYWGQGTQVTVSS | low polyreactivity
9 | QVQLVESGGGLVQAGGSLRLSCAASGFTFDFYAMGWNRQAPGKERELVAVISSSGRTYYADSVKGRFTISRDNAKNSVYLQMNSMKPEDTAVYYCDAKDKRGHTYDYWGQGTQVTVSS | high polyreactivity
10 | QVQLVESGGGLVQAGGSLRLSCAASGFIFQVYAMGWYRQAPGKERELVASISSSGGSTYYADSVKGRFTISRDNAKNTVYLQMNSLKPEDTAVYYCAVEQRYRYWYRYRYKFLLDSDYWGQGTQVTVSS | high polyreactivity
11 | QVQLQESGGGLVQAGGSLRLSCAESGTIFGWDRMGRYRQAPGKERELVATIDNRGSTNYADSVKGRFTISRDNAKNTVYPQMNSLKPDDTAVYYCAVVGPTPQYHLYWGQGTQVTVSS | high polyreactivity
12 | QVQLVESGGGLVQAGGSLRLSCAASGSTFRYYAMGWYRQAPGKERELVASISSGGSTNYADSVKGRFTISRDNAKNTVYLQMNSLKPGDTAVYYCNADSWTVNRRYYYYRYEYWGQGTQVTVSS | low polyreactivity
13 | QDQLVESGGGLVHAGGSHRFSCAASGFTFGAYAMGWSRQAPGKERELVATITNSGRTYYADSVKGRFTISRDNAKNTVYLQMNSLKPEDTAVYYCAAQPDGQAMEHWGQGTQVTVSS | low polyreactivity
14 | QVQLVESGGGLVQAGGSLRLSCAASGIIFYYYAMGWYRQAPGKERELVAAISTSGGRTYYADSVKGRFTISRDNAKNTVYLQMNSLKPEDTAVYYCNTKVISRTSERRGNGFTRYDYWGQGTQVTVSS | low polyreactivity
15 | QVQLVESGGVLVQAGGSLRLSCAASGIIFFYNAMGWYRQAPGKERELVAAISARGGRTYYADSVKGRFTISRDNAKNTVYLQMNSLKPEDTAVYYCNAYRYGWEDMDYWGQGTQVTVSS | high polyreactivity
16 | QVQLVESGGGLVQAGGSLRLSCAASGFTFYQYAMGWYRQAPGKERELVAAISSSGTSTYYADSVKGRFTISRDNAKNTVYLQMNSLKPEDTAVYYCAARRYKLFYWGQGTQVTVSS | low polyreactivity
17 | QVQLVESGGGLVQAGGSLRLSCAASGFTFVTYAMGWSSQAPGKERELVATISWGVGGSYYADSVKGRFTISRDNAKNTVYLPMNSLKPEDTAVYYCNARHTWHQTYDYWGQGTQVTVSS | low polyreactivity
18 | QVQLVESGGGLVQAGGSLRLSCAASGRIFYYNGMGWYRQAPGKERELVAAIRWSGGSTRYADSVKGRFTISRDNAKNTVYLQMNSLKPEDTAVYYCAADGFYRWYPYKRYQFYYWGQGTQVTVSS | high polyreactivity
19 | QVQLVESGGGLVQAGGSLRLSCAASGNIIRSYMGWYRQAPGKERELVASISRRGGSTYYADSVKGRFTISRDNAKNTVYLHMNSLKPEDTAVYYCARRWSWVNGVFGYYWGQGTQVSVSS | high polyreactivity
20 | QVQLVESGGGLDQAGGSLRLSCAASGSTFSIYTMGWYRQAPGKEREFVAAITYIGGRTYYADSVKGRFTISRDNAKNTVYLQMNSLKPEDTAVYYCAADWAYYVASYLYYTFDYWGQGTQVTVSS | low polyreactivity
21 | QVQLVESGGGLVQAGGSLRLSCAASGRIFLGYAMGWYRQAPGKERELVAAISAGGGSTYYADSVKGRFTISRDTAKNTVYLLMNSLKPEDTAVYYCAARRPHIPVKTYDYWGQGTQVTVSS | high polyreactivity
22 | QVQLVESGGGLVQAGGSLRLSCAASGFIFQPYALGWYRQAPGKERELDASITLRGGSTYYADSVKGRFTISRDNAKNTVYLQMNSLKPEDTAVYYCAARIYQYWGGHYDYWGQGTQVTVSS | high polyreactivity

Row | Sequence | polyreactivity (PSR sort gate)
23 | QVQHVETRGGLVQAGGSLRLSCAASGFIFIRYAMGWDRQAPGKERELVAGITSSGGSTYYADSVKGRFTISRDNAKNSVYLQMNSLKPEDTEVYFCNADSWLYRFYGYDYWGQGTQVTVSS | low polyreactivity
24 | QVPLEESRGGLVQAGGSLRLSCAASGTIFVAYDMGWYRQAPGKERELVAAIDSVGRTNYADSVKGRFTISRDNAKNTVYLQMNSLKPEDTAVYYCNADQYYSFYDPDDYWGQGTQVTVSS | low polyreactivity
25 | QDHLVESVGGLVQAGRSLRLTCAASGGTFYYKTMGWYRQAPGKESQLVAAITSGTSTNYADSVKGRFTISRDNAKNTVYLQMNSLKPEDTAVYYCAADPDADDPRRGYDYWGQGTQVTVSS | low polyreactivity
26 | QVQLVESGGGLVQAGGSLRLSCAASGSIYYNAMGWYRQAPGKERELVAAISTSGGTTYYADSVKGRFTISRDNAKNTVYLQMNSLKPEDTAVYYCNARPSRRGAFDYWGQGTQVTVSS | high polyreactivity
27 | QVQLVESGGGLVQAGGSVRLSCGASGSIFLGNSMGWYRQAPGTLRELVAAISSITGSTYYADSVKGRFSISRDIAKNTVYLQMNRLKQEETGVYYCARVPDTEGEYWGQGTQVTVSS | high polyreactivity
28 | QVQLVESGGGVVQAGGSLRLSCAGSGRTFGPYAMGWYRQAPGKERELVAAIRYIDDSTFYADSVKGRFTISRDKAKNTVYLQMNSLKPEDTAVYYCAAQRRVVGRHGLSLIRYDYWGQGTQVTVTS | low polyreactivity
29 | QVQLVESGGGLVQAGGSLRLSCAASGRIFRVYTMGWYRQAPGKERQLVATISYRGGSTYYADSVKGRFTISRDNAKNTVFLQMNSLTPDDNAVYNCAARLPADPGKTPGTLRTLDYWGQGTQVTVSS | high polyreactivity
30 | QVQLVESGGGLVQAGGSLRLSCAASGSTFFTYAMGWYRQAPGKERELVASISIGGSTNYADSVKGRFTISRDNAKNTVYLQMNSLKPEDTAVYYCAIRYFTFGVDYDYWGHGTQVTVSS | low polyreactivity
31 | QVQMQESGGGLVLAGGSLRLSCASSGSISAQAYMGWDRQAPGKEREHVAGINYGDNTNYADSVKGRFTISRDNEHRVSADEQPETGRYRGVLLRGFLELFYYYIYWGQGTQVTVSS | high polyreactivity
32 | QVQLVDSGGGLVQAGGSLCLSCPASGGTSRVNAMGWYRQAPGKETELVARIRSGGSTYYADSVKGRFTISRDNAKNTVYFKMNRLKPEDTAVYHCAAVPRRTGQQQDMDYWGQGTQVTVSS | high polyreactivity
33 | QVQLEESGGGLVQAGGSLSVSCAASGSICRNYAMGWYLQAPGKERELVAAISVRGGSTYYADSVKGRFTISRDNAKNTVYLQMHSLKPEDTAGYYCNAVHHDTISDYWGQGTQVTVSS | high polyreactivity
34 | EVQLVESGGGLVQAGGSLRLSCAASVSTFGSNAMGWYRQAPGKERELVAAITNGGSTNYADSVKGRFTISRDNEKNTVYLQMNSLKPEDTAVYYCNAVQSAYNKFWIALWGGYWGQGTQVTVSS | low polyreactivity
35 | QVQLVESGGGFVQAGGSLRLSCAASGRTFQFYAMGWYRQAPGKERELVAAITYSGDSTYYADSVKGRFTISRDNAKNTVYLQMNSLKPEDTAVYYCAAGVWFYWYEYDYWGQGTQVTVSS | high polyreactivity
36 | QVQLVESGGGLVQAGGSLRLSCAASGRIFYYYAMGWYRQAPGKERELFADITWSGGSTYYADSVKGRFTISRDNAKNTVYLQMNSLKPEDTAVNYCNAVYFNYLLEYDYWGQGTQVTVSS | high polyreactivity
37 | QVQLVESGGGLVQAGGSLRLSCAASGRTFPYYTMGWYRQAPGKERELVAAINSSGGRTYYADSVKGRFTISRDNAKNTVYLQMNSLKPEDTAAYYCAKRGYYKYDWGQGTQVTVSS | high polyreactivity
38 | QVQLVESGVGLVQAGGSLRLICAASGSTFGYYAMGWYRQAPGKERELVAAITGRGGSTYYADSVKGRFTISRDNAKNTVYLQMNSLKPEDTAVYYCAVGKYRLYYSGAYGFWGQGTQVTVSS | high polyreactivity
39 | QVQLVESGGGLVQAGGSLRLSCAASGFSFGVYAMGWSRQAPGKERELVAAISTTVGSTYYADSVKGRFTISRDNAKNTVYLQMNSLKPEDTAVYYCAAEYTGYINYYIYEYWGQGTQVTVSS | low polyreactivity
40 | QVQLVESGGVLVQAGGSLRLSCAAYGSNFVRNGMGWYRQAPGKEREFVASITSGTITYYADSVKGRFTISRDNAKNTVYLQMNSLKPEDTAVYYCNAGCRSSRFKRPYFRERNYWGQGTQLTVSS | high polyreactivity
41 | QVQLVESGGGLVHAGGSLRISCAPSGLTFLYNAMGWYRQAPGKERELVAAISQSAGSTYYADSVKGRFTISRDNAKNTVYLQMNSLKPEDTAVYYCAAEWDSPDLVIYDYWGQGTQVTVSS | low polyreactivity
42 | QVQLVESGGGLVQAGGSLRLSCAASGSIFRGYAMGWYRQAPGKERDLVAAITSGGSTNYADSVKGRFTISRDNAKNSVYLQMNSLKPEDTAVYYCAKDLALVAPLSDYWGQGTQVTVSS | low polyreactivity
43 | QVQLVESGGGLVQAGGSLRLSCAASGRTALRNAMGWYRQAPGKEREFVADIRWSGGSTYYADSVKGRFTISRDKAKNTVYLQMNSQKPEDTAVYYCAAGYVRYPYWYYYWGQGTQVTVSS | high polyreactivity
